Assay results from publication PMC7343212, “Lactoferrin-Hexon Interactions Mediate CAR-Independent Adenovirus Infection of Human Respiratory Cells” (Journal of Virology, 2020).
“Also recorded” adds a separate entry of the source.

B1: human lactoferrin (protein, UniProt P02788 20-710, looked up)
Lactotransferrin: GRRRSVQWCAVSQPEATKCFQWQRNMRKVRGPPVSCIKRDSPIQCIQAIAENRADAVTLDGGFIYEAGLAPYKLRPVAAEVYGTERQPRTHYYAVAVVKKGGSFQLNELQGLKSCHTGLRRTAGWNVPIGTLRPFLNWTGPPEPIEAAVARFFSASCVPGADKGQFPNLCRLCAGTGENKCAFSSQEPYFSYSGAFKCLRDGAGDVAFIRESTVFEDLSDEAERDEYELLCPDNTRKPVDKFKDCHLARVPSHAVVARSVNGKEDAIWNLLRQAQEKFGKDKSPKFQLFGSPSGQKDLLFKDSAIGFSRVPPRIDSGLYLGSGYFTAIQNLRKSEEEVAARRARVVWCAVGEQELRKCNQWSGLSEGSVTCSSASTTEDCIALVLKGEADAMSLDGGYVYTAGKCGLVPVLAENYKSQQSSDPDPNCVDRPVEGYLAVAVVRRSDTSLTWNSVKGKKSCHTAVDRTAGWNIPMGLLFNQTGSCKFDEYFSQSCAPGSDPRSNLCALCIGDEQGENKCVPNSNERYYGYTGAFRCLAENAGDVAFVKDVTVLQNTDGNNNEAWAKDLKLADFALLCLDGKRKPVTEARSCHLAMAPNHAVVSRMDKVERLKQVLLHQQAKFGRNGSDCPDKFCLFQSETKNLLFNDNTECLARLHGKTTYEKYLGPQYVAGITNLKKCSTSPLLEACEFLRK
notes: Human LF purified from human tear fluid by size exclusion chromatography
B2: rhLF: recombinant hLF produced in Aspergillus awamori, human amino acid backbone, high-mannose glycosylation pattern (protein, UniProt P02788 20-710, looked up)
Lactotransferrin: B1 Lactotransferrin
modifications: recombinant, expressed in Aspergillus awamori
B3: bovine lactoferrin (protein, UniProt P24627 20-708, looked up)
Lactotransferrin: APRKNVRWCTISQPEWFKCRRWQWRMKKLGAPSITCVRRAFALECIRAIAEKKADAVTLDGGMVFEAGRDPYKLRPVAAEIYGTKESPQTHYYAVAVVKKGSNFQLDQLQGRKSCHTGLGRSAGWIIPMGILRPYLSWTESLEPLQGAVAKFFSASCVPCIDRQAYPNLCQLCKGEGENQCACSSREPYFGYSGAFKCLQDGAGDVAFVKETTVFENLPEKADRDQYELLCLNNSRAPVDAFKECHLAQVPSHAVVARSVDGKEDLIWKLLSKAQEKFGKNKSRSFQLFGSPPGQRDLLFKDSALGFLRIPSKVDSALYLGSRYLTTLKNLRETAEEVKARYTRVVWCAVGPEEQKKCQQWSQQSGQNVTCATASTTDDCIVLVLKGEADALNLDGGYIYTAGKCGLVPVLAENRKSSKHSSLDCVLRPTEGYLAVAVVKKANEGLTWNSLKDKKSCHTAVDRTAGWNIPMGLIVNQTGSCAFDEFFSQSCAPGADPKSRLCALCAGDDQGLDKCVPNSKEKYYGYTGAFRCLAEDVGDVAFVKNDTVWENTNGESTADWAKNLNREDFRLLCLDGTRKPVTEAQSCHLAVAPNHAVVSRSDRAAHVKQVLLHQQALFGKNGKNCPDKFCLFKSETKNLLFNDNTECLAKLGGRPTYEEYLGTEYVTAIANLKKCSTSPLLEACAFLTR
notes: bovine lactoferrin from cow milk (Sigma)

How the values were obtained:
[1] = target: T1, HAdV-C5 hexon (Human adenovirus C serotype 5, UniProt P04133); experiment: Surface plasmon resonance, HAdV-C5 hexon immobilized; format: binding
T1 construct: the top phase containing soluble viral components was recovered, and HAdV hexons were purified using monoclonal hexon antibodies; made in house; host or cells: A549 cells infected with wild-type HAdV-C5 (strain Ad75)
Experimental: (§1) Ten flasks of 70% confluent A549 cells were infected with HAdV-C5, HAdV-A31, or HAdV-B35. After initial inoculation, unbound virus was washed away, and approximately 30 ml of fresh medium (DMEM plus 20 mM HEPES [N-2-hydroxyethylpiperazine-NN-2-ethanesulfonic acid] plus 5% FBS) was added. At 48 h after infection, the cells were harvested by scraping into a small volume of DMEM, centrifuged, and resuspended in 6 ml of DMEM. The collected cells were lysed and the sample cleared by centrifugation. Virus was separated from soluble viral components by a CsCl gradient, as described previously ([59]). After ultracentrifugation, the top phase containing soluble viral components was recovered, and HAdV hexons were purified using monoclonal hexon antibodies (MAB8052) covalently attached to magnetic protein A/G beads (Pierce) using dimethyl pimelimidate (DMP) according to the manufacturer’s instructions. Bound hexons were washed three times using PBS to remove protein bound unspecifically, followed by elution in 50 μl of 200 mM glycine buffer at pH 2.5.
(§2) CM5 sensor chips, an amine-coupling kit, and HBS-EP+ buffer (10 mM HEPES, 150 mM NaCl, 3 mM EDTA, and 0.005% [vol/vol] surfactant P20 [pH 7.4]) were all purchased from GE Healthcare. All surface plasmon resonance (SPR) experiments were performed at 25°C in HBS-EP+ running buffer with adenovirus hexons immobilized on the sensor surface. In addition, all experiments were performed with the same batch of LF/Lfcin. Data were collected with a Biacore T200 instrument at a rate of 1 Hz. HAdV hexons were coupled to the CM5 sensor chip by amine coupling reactions according to the manufacturer’s instructions, aiming for an immobilization density of 900 to 1,100 resonance units (RU). The surface of the upstream flow cell was used as a reference and was subjected to the same coupling reaction in the absence of protein. The analytes were serially diluted in running buffer to prepare a 2-fold concentration series ranging from 8 nM to 2 μM and then injected in series over reference and experimental biosensor surfaces for 120 sec at a flow rate of 30 μl/min. Blank samples containing only running buffer were also injected under the same conditions to allow for double referencing. After each cycle, the biosensor surface was regenerated with a 60-sec pulse of 10 mM Tris-glycine (pH 1.5) at a flow rate of 30 μl/min.

[2] = target: HAdV-B35 hexon; experiment: Surface plasmon resonance, HAdV-B35 hexon immobilized; format: binding
Experimental: as §1, §2

[3] = target: HAdV-A31 hexon; experiment: Surface plasmon resonance, HAdV-A31 hexon immobilized; format: binding; conditions: analyte hLF, HBS-EP+ pH 7.4, 25°C, average from three independent measurements
Experimental: as §1
CM5 sensor chips, an amine-coupling kit, and HBS-EP+ buffer (10 mM HEPES, 150 mM NaCl, 3 mM EDTA, and 0.005% [vol/vol] surfactant P20 [pH 7.4]) were all purchased from GE Healthcare. All surface plasmon resonance (SPR) experiments were performed at 25°C in HBS-EP+ running buffer with adenovirus hexons immobilized on the sensor surface. In addition, all experiments were performed with the same batch of LF/Lfcin. Data were collected with a Biacore T200 instrument at a rate of 1 Hz. HAdV hexons were coupled to the CM5 sensor chip by amine coupling reactions according to the manufacturer’s instructions, aiming for an immobilization density of 900 to 1,100 resonance units (RU). The surface of the upstream flow cell was used as a reference and was subjected to the same coupling reaction in the absence of protein. […]

[4] = tested on: human respiratory epithelial A549 cells (HAdV-C5_GFP); experiment: HAdV-C5_GFP transduction of A549 cells; format: cell-based; conditions: for effect of LF on HAdV-C5_GFP transduction of A549 cells (in words): GFP imaging after 44 h (Fig. 1A)
Excerpt: For all transduction experiments, GFP-expressing vectors were used. The HAdV_GFP vector was purchased from Vector Development Laboratory. All mutated HAdV-C5 vectors were generated in the laboratory of A. Plückthun at the University of Zürich using the AdEasy system (Agilent) to contain an internal ribosome entry site (IRES)-luciferase (Luc)-GFP cassette for detection of transduction. To investigate the role of integrins in transduction, HAdV-C5-IRES-GFP with an intact RGD loop in the penton base protein (-DMNDHAIRGDTFATRAE-) and HAdV-C5-ΔRGD-IRES-GFP (-DMNDTSRAEEKRAE-), known not to bind integrins ([40]), were generated. To determine the binding site for hLF/hLfcin on the hexon protein, hexon-mutated vectors were produced with HVR-1 of HAdV-C5 ([43]) replaced with the corresponding sequence of HAdV-A31, as well as a HAdV-C5 vector mutated in HVR-7 ([44]).
For experiments in A549 cells, 15,000 cells were seeded into a black 96-well plate with a transparent bottom. For experiments with CHO-K1 cells, 20,000 cells were seeded. After 24 h, HAdV-C5 vectors was complexed with 2 μM Lfcin or with ∼12 μM (1 mg/ml) of LF and, after 60 min, added to the cells on ice. The blocking of CAR using soluble HAdV-C5 fiber knob was performed using 10 μg/ml of recombinant knob. After another 60 min, unbound complex was washed away using Dulbecco’s modified Eagle’s medium (DMEM), followed by final addition of fresh medium. After 44 h, the cells were fixed using 4% paraformaldehyde (PFA) for 10 min, and GFP expression was imaged using a Trophos system (Luminy Biotech Entreprises). For the hexon chimeric viruses, transduction was instead quantified by measuring the luciferase activity at 44 h postinfection using a Pierce luciferase glow assay kit.

[5] = tested on: epithelial and T cells (species C HAdVs); conditions: ref [15], cited from earlier work
Excerpt: This is surprising, as hLF usually exerts antimicrobial functions ([22][–][24]), as well as preventing virus attachment to target cells and/or inhibiting virus replication ([25][–][27]). hLF is produced largely by neutrophils, but also by primary epithelial cells, and it is naturally present in a vast majority of body fluids in concentrations of up to several mg/ml, where it protects epithelia from pathogens ([28][–][31]). […] In this study, we investigated the molecular mechanisms behind hLF-dependent infection. As a first step, we investigated the structural features whereby hLF mediates HAdV-C5 infection of human respiratory A549 cells. In total, we used three different types of lactoferrin, namely, hLF purified from human tear fluid (present in several mg/ml), a recombinant form of hLF produced in Aspergillus with a human amino acid backbone but with a high-mannose glycosylation pattern ... || Utilization of hLF/hLfcin by species C HAdVs could also account for the frequent and persistent infections of species C HAdVs in tonsil T lymphocytes in young children ([56]). […] Taken together, our results highlight the ingenuity of HAdVs and explain how they may ensure efficient infection in a very hos ...

[6] = tested on: A549 cells (HAdV-C5 virions); experiment: 35S-labeled HAdV-C5 virion binding to A549 cells; format: cell-based, Human; conditions: at this concentration (2 μM), Fig. 1C
Experimental: A549 cells were detached using phosphate-buffered saline (PBS) plus 0.05% EDTA with slow rocking at 37°C. Once detached, the cells were centrifuged at 1,500 × g for 5 min, resuspended in growth medium to about 2 × 10^6 cells/ml, and allowed to recover at 37°C, slowly rocking to keep the cells in suspension. While recovering, the HAdV-Lfcin complex was set up. Lfcin (2 μM), or an equivalent volume of PBS, was mixed with ^35S-labeled HAdV (15,000 particles/cell) in medium and left on ice at 4°C for 60 min. After 60 min of recovery, the cells were counted, and 150,000 viable cells were added to each well of a 96-V-shaped-well plate and centrifuged for 5 min at 1,500 × g. Once pelleted, the cells were resuspended in the HAdV-Lfcin solution or in HAdV-PBS solution and incubated on ice for 60 min at 4°C. After 60 min, the cells were pelleted and washed once in medium and once in PBS before the addition of scintillation fluid and quantification using a Wallac 1450 Microbeta counter (Trilux).

[7] = association rate constant, analyte hLF, SPR, HBS-EP+ pH 7.4, 25°C, average from three independent measurements
[8] = dissociation rate constant, analyte hLF, SPR, HBS-EP+ pH 7.4, 25°C, average from three independent measurements
[9] = LF 1 mg/ml preincubated with HAdV-C5_GFP

T1 sequence (P04133 2-952 limits assumed): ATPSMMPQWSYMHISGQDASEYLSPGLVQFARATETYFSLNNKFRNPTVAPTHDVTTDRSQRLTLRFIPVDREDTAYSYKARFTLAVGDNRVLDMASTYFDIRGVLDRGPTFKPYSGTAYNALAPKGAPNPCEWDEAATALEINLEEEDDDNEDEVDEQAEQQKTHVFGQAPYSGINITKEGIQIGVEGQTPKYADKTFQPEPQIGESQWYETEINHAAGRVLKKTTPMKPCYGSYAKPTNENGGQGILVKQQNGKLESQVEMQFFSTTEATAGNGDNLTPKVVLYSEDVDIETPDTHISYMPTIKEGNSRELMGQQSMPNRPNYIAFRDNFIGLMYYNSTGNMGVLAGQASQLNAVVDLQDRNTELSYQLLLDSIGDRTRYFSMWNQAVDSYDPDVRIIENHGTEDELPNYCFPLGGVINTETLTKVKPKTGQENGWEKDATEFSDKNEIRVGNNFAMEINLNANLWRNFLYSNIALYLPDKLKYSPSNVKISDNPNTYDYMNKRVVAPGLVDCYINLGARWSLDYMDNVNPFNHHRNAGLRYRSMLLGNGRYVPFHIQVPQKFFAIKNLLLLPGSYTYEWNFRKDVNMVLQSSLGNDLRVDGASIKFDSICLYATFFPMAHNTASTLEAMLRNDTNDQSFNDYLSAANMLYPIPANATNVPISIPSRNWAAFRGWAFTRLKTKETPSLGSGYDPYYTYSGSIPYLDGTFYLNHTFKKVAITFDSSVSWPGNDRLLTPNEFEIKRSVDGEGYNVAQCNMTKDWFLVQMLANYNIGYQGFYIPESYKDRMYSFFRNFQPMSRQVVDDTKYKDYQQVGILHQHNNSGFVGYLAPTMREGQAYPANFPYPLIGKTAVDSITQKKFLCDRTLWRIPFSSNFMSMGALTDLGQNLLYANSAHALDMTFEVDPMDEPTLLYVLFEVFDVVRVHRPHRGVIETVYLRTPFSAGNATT

Molecule | Kd ([1]; SPR Biacore T200, HAdV-C5 hexon amine-coupled on CM5 chip (900 to 1,100 RU), analyte hLF, 2-fold series 8 nM to 2 μM, HBS-EP+ pH 7.4, 25°C, average from three independent measurements) [nM] | affinity ratio, HAdV-C5 hexon stronger than HAdV-B35 hexon ([1]; SPR, 25°C, pH 7.4, HAdV-C5 versus HAdV-B35 hexon) | ka [1, 7] [M⁻¹ s⁻¹] | kd [1, 8] [s⁻¹] | Kd ([2]; SPR Biacore T200, HAdV-B35 hexon on CM5 chip, analyte hLF, 2-fold series 8 nM to 2 μM, HBS-EP+ pH 7.4, 25°C, average from three independent measurements) [nM] | affinity ratio, HAdV-B35 hexon stronger than HAdV-A31 hexon ([2]; SPR, 25°C, pH 7.4, HAdV-B35 versus HAdV-A31 hexon) [fold] | ka [2, 7] [M⁻¹ s⁻¹] | kd [2, 8] [s⁻¹] | Kd ([3]; SPR Biacore T200, HAdV-A31 hexon on CM5 chip, 2-fold series 8 nM to 2 μM) [nM] | ka ([3]; association rate constant, SPR) [M⁻¹ s⁻¹] | kd ([3]; dissociation rate constant, SPR) [s⁻¹] | increase of HAdV-C5_GFP transduction of A549 cells by LF ([4]; LF 1 mg/ml preincubated with HAdV-C5_GFP, GFP imaging after 44 h, mean from 3 to 5 independent experiments (Fig. 1A)) [fold] | prevention of transduction at high concentration ([4]; high, nonphysiological concentrations, data not shown, cell line not stated, also ref [15]) | effect on HAdV-C5 infection of CAR-negative T cells ([5]; CAR-negative T cells) | effect on species C HAdV infection [5] | effect of LF on HAdV-C5_GFP transduction of A549 cells (in words) [4, 9] | effect on HAdV-C5 transduction of A549 cells (in words) ([4]; at this concentration (2 μM), Fig. 1D) | effect on HAdV-C5 binding to A549 cells (in words) [6]
B1 | 29 ± 3.6 | about 5 fold | 53000 ± 2600 | 0.00154 ± 0.00024 | 151 ± 14 | 5 | 25000 ± 2500 | 0.00354 ± 0.00014 | 827 ± 55 | 12000 ± 1100 | 0.01011 ± 0.00024 | 4 | able to prevent transduction | facilitates HAdV-C5 infection | efficiently increases species C HAdV infection; also recorded: all species C HAdVs infect epithelial and T cells more efficiently | – | – | –
B2 | – | – | – | – | – | – | – | – | – | – | – | – | – | – | – | Neither bLF nor rhLF affected HAdV-C5_GFP transduction | – | –
B3 | – | – | – | – | – | – | – | – | – | – | – | – | – | – | – | Neither bLF nor rhLF affected HAdV-C5_GFP transduction | no or little effect | no or little effect
